Data published in patent US20090099343A1.
Where “and” joins values, the source holds several entries; their conditions need not be identical. Equal entries are not always repeated.

How the values were obtained:
[1] = target: T1, PrP^Sc, pathogenic prion protein in brain homogenate of RML PrP^Sc+ Balb-c mice (mouse), P04925; experiment: bead pull-down from PrP^Sc+ mouse brain homogenate; ELISA
[2] = target: T1, PrP^Sc, pathogenic prion protein in …; experiment: bead pull-down, NaCl dissociation of bound PrP^Sc; Western blot

T1 sequence (P04925 23-230 limits assumed): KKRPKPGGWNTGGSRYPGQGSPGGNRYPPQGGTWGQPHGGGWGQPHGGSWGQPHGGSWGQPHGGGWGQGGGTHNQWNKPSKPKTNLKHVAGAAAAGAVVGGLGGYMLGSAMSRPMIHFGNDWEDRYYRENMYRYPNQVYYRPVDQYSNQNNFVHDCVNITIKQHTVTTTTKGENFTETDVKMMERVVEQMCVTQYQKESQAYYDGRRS

Binder	ELISA A405nm [1] [A405nm]	recovery rate following 1.0 M NaCl elution [2]
KKRPKGGG (modifications not checked) [Peptide reagent SEQ ID NO:120]	0.631	
KKRPKGGG (modifications not checked) [Peptide reagent SEQ ID NO:119]	0.61	
KKRPKGGG (modifications not checked) [Peptide reagent SEQ ID NO:121]	0.509	
GGGKKKKKKKK (modifications not checked) [Peptide reagent SEQ ID NO:85]		40% and 50%
GGGKKRPKPGG (modifications not checked) [Peptide reagent SEQ ID NO:68]		40% and 50%
KKRPKGGG (modifications not checked) [Peptide reagent SEQ ID NO:122]	0.503	
